According to the Human Domainome abundance scans (Beltran et al. 2025):
± gives the uncertainty stated by the source.

B1: DnaJ homolog subfamily C member 5, residues 16 to 77; numbered along this chain, Q9H3Z4 (parent)
chain: LYHVLGLDKNATSDDIKKSYRKLALKYHPDKNPDNPEAADKFKEINNAHAILTDATKRNIYD

Variants of: B1
Test: abundance fitness (aPCA) (normalised: wild type 0, dead -1); higher = more abundant; growth selection in yeast, the domain comes from the species named
Details: Homo sapiens

Abundance fitness of substitutions, site by site:
H3: T -0.017 ± 0.08, L -0.364 ± 0.074, E -0.114 ± 0.13, W -0.301 ± 0.098, I -0.423 ± 0.13, N -0.27 ± 0.16, Q -0.116 ± 0.098, S 0.147 ± 0.082, P -0.602 ± 0.093, R -0.185 ± 0.082, K -0.133 ± 0.17, D -0.528 ± 0.24, F -0.216 ± 0.22, C -0.148 ± 0.22, Y -0.489 ± 0.17, A -0.14 ± 0.096, G -0.157 ± 0.089, M -0.153 ± 0.1
A11: C -0.182 ± 0.22, Q -1.25 ± 0.33, I -1.49 ± 0.32, E -1.13 ± 0.25, R -0.846 ± 0.1, P -0.536 ± 0.23, N -0.125 ± 0.36, K -0.569 ± 0.16, G -0.536 ± 0.1, M -1.6 ± 0.38, L -0.941 ± 0.15
L5: P -0.221 ± 0.14, K -0.444 ± 0.14, T -0.368 ± 0.27, N 0.123 ± 0.3, Y -0.606 ± 0.38, S -0.267 ± 0.11, R -0.889 ± 0.1, E -0.14 ± 0.1, Q 0.084 ± 0.13, H 0.038 ± 0.35, G -0.713 ± 0.13, V -0.906 ± 0.12, M -0.32 ± 0.26
Y2: I -0.809 ± 0.19, Q -0.358 ± 0.15, K -0.692 ± 0.13, L -0.653 ± 0.062, H -0.492 ± 0.12, C -0.686 ± 0.11, G -0.28 ± 0.11, V -0.873 ± 0.13, R -0.922 ± 0.12, D -0.18 ± 0.17, W -0.534 ± 0.11, M -0.422 ± 0.12, S -0.516 ± 0.085, F -0.394 ± 0.14, E -0.098 ± 0.1, A -0.496 ± 0.091, N -0.011 ± 0.17, T -0.357 ± 0.27
G6: E -0.866 ± 0.17, R -0.488 ± 0.11, C -0.466 ± 0.13, L -0.625 ± 0.089, F -0.985 ± 0.17, A -0.485 ± 0.1, S -0.559 ± 0.069, W -1.02 ± 0.14, M -0.655 ± 0.23, V -1.42 ± 0.16, N 0.069 ± 0.47, Y -0.671 ± 0.41, D -0.046 ± 0.12, K -0.751 ± 0.25, P -0.799 ± 0.12
N10: S -0.142 ± 0.078, L -0.342 ± 0.075, E -0.343 ± 0.098, F -0.371 ± 0.11, D -0.343 ± 0.15, Q -0.266 ± 0.087, R -0.464 ± 0.068, W -0.4 ± 0.068, H -0.493 ± 0.28, V -0.711 ± 0.069, P -0.818 ± 0.14, Y -0.796 ± 0.22, I -0.741 ± 0.16, A -0.293 ± 0.062, T -0.073 ± 0.13
L1: K -0.269 ± 0.19, N 0.262 ± 0.17, M 0.022 ± 0.15, R -0.741 ± 0.2, W -0.352 ± 0.099, S -0.198 ± 0.11, T -0.542 ± 0.22
K9: Q -0.25 ± 0.17, M -0.458 ± 0.087, Y -0.163 ± 0.18, S -0.125 ± 0.076, E 0.007 ± 0.07, W -0.499 ± 0.094, F -0.281 ± 0.11, A 0.077 ± 0.082, C -0.246 ± 0.14, D -0.05 ± 0.14, R -0.116 ± 0.065, T -0.27 ± 0.091, I -0.099 ± 0.19, P -0.252 ± 0.096, N -0.394 ± 0.16, G -0.215 ± 0.08, V -0.004 ± 0.073, H -0.341 ± 0.19
L7: Y -1.01 ± 0.22, S -0.345 ± 0.087, R -0.608 ± 0.07, Q -0.309 ± 0.092, W -0.949 ± 0.096, I -0.477 ± 0.18, T -0.721 ± 0.14, P -0.231 ± 0.14, K -0.365 ± 0.092, A -0.298 ± 0.085, N -0.434 ± 0.22, C -0.149 ± 0.1, V -0.103 ± 0.075, D -0.316 ± 0.14, F -0.734 ± 0.15, H -0.54 ± 0.36, E -0.298 ± 0.079
V4: K -0.646 ± 0.096, W -0.687 ± 0.083, T -0.209 ± 0.084, G -0.599 ± 0.054, M -0.078 ± 0.096, E -0.374 ± 0.11, A 0.034 ± 0.085, L -0.292 ± 0.051, Y -0.553 ± 0.12, R -0.765 ± 0.07, Q -0.546 ± 0.11, D -0.458 ± 0.13, N -0.15 ± 0.088, F -0.362 ± 0.15, I -0.054 ± 0.074, C -0.056 ± 0.1, P -0.733 ± 0.1, S -0.259 ± 0.07
D8: W -0.648 ± 0.086, N -0.277 ± 0.11, M -0.355 ± 0.08, V -0.648 ± 0.077, I -0.807 ± 0.11, C -0.497 ± 0.098, H -0.42 ± 0.14, Q -0.019 ± 0.12, A -0.258 ± 0.069, K -0.516 ± 0.13, F -0.533 ± 0.11, T -0.309 ± 0.088, R -0.44 ± 0.066, S -0.378 ± 0.063, Y -0.421 ± 0.1, P 0.108 ± 0.12, G -0.459 ± 0.075
